The values that follow come from US20200087347 (published 2020).

Side-chain parts run from the residue outwards. [ ]: non-standard residue; d: D form. NMeK = CN[C@@H](CCCCN)C(=O)O; Ahx = NCCCCCC(=O)O; BDPFL = dye

Holding throughout (experiment): competition
One experiment concerns the target T1, integrin αvβ3 (human, UniProt P06756).
T1 chain 1: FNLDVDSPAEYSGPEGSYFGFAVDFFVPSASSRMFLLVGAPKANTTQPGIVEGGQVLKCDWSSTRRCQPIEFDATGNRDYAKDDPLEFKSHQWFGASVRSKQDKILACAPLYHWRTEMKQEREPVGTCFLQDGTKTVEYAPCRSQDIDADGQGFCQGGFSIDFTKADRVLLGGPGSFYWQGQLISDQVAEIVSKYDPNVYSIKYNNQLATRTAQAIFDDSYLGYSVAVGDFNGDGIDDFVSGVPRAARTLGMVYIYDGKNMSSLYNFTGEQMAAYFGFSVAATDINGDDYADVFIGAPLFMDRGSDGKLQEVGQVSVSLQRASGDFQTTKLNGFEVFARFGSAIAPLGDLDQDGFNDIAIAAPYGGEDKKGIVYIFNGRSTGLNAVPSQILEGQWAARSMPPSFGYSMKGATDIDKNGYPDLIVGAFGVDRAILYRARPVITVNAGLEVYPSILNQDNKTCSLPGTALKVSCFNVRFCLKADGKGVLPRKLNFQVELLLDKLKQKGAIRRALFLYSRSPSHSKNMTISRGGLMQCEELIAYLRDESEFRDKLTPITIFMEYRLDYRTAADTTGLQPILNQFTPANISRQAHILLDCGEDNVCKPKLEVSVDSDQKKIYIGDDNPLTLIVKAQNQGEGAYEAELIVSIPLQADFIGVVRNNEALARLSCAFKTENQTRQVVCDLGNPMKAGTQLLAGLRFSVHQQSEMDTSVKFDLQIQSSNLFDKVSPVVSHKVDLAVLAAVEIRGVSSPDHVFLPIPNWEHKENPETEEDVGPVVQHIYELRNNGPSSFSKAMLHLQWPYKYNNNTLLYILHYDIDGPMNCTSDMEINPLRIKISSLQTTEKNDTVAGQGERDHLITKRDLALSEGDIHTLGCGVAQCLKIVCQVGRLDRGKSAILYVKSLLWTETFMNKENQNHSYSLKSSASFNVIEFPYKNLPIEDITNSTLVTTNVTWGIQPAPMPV
T1 chain 2: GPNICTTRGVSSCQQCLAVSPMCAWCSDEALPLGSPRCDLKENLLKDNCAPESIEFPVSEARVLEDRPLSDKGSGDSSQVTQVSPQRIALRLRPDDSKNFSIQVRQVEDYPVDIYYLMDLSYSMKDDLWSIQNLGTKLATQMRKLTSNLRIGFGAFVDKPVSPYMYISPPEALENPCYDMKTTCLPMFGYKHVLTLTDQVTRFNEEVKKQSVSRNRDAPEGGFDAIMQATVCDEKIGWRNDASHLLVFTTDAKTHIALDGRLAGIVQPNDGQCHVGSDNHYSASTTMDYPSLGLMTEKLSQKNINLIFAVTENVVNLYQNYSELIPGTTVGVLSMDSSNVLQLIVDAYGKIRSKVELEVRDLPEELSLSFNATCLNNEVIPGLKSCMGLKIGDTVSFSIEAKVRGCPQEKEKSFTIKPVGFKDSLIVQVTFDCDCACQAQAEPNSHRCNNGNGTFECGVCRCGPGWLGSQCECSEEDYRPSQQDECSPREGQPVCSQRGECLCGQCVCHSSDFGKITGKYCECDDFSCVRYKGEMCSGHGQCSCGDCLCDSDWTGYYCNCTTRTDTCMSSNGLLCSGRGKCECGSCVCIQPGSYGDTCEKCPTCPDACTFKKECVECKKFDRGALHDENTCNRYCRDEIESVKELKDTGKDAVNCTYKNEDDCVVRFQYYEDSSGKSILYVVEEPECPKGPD

In the next experiment the target is integrin αIIbβ3 (human, UniProt P08514).
A further experiment has as its target T2, integrin αvβ8 (human, UniProt P06756).
T2 chain 1: T1 chain 1
T2 chain 2: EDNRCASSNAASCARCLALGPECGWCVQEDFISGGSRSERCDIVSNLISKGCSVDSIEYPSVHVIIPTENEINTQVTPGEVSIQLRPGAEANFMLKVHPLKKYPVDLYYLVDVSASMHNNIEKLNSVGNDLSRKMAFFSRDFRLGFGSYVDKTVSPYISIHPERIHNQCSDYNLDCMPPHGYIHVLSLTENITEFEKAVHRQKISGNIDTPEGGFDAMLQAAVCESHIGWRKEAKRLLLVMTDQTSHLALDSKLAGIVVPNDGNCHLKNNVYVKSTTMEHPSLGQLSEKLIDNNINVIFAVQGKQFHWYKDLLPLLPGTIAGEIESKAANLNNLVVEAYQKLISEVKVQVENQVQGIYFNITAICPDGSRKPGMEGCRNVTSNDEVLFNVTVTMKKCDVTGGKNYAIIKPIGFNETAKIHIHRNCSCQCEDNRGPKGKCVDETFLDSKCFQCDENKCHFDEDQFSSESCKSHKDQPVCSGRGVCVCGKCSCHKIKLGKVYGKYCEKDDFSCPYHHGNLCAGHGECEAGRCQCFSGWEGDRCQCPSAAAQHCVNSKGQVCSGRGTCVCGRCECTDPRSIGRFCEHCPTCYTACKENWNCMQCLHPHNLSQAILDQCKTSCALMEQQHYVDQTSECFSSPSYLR

For another experiment, the target named is T3, integrin αvβ5 (human, UniProt P06756).
T3 chain 1: T1 chain 1
T3 chain 2: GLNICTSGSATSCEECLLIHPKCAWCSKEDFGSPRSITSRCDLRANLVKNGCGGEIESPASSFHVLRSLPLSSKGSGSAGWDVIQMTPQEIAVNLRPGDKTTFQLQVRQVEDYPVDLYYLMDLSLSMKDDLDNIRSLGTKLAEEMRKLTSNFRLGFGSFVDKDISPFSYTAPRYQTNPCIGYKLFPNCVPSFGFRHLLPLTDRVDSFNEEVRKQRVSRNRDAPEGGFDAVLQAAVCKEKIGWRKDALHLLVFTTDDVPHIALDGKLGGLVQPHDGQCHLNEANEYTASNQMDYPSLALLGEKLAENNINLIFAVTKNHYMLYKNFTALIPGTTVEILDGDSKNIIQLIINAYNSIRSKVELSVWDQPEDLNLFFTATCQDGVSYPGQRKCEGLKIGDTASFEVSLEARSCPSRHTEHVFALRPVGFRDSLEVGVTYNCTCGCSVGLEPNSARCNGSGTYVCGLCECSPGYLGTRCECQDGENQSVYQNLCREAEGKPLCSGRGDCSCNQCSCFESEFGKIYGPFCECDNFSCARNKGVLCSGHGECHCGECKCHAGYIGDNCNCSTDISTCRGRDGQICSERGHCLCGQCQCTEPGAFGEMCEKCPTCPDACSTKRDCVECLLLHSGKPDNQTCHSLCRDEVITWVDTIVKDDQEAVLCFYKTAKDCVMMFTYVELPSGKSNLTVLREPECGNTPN

The next experiment concerns the target integrin α5β1 (human, UniProt P08648).
The target of a further experiment is T4, integrin αvβ6 (human, UniProt P06756).
T4 chain 1: T1 chain 1
T4 chain 2: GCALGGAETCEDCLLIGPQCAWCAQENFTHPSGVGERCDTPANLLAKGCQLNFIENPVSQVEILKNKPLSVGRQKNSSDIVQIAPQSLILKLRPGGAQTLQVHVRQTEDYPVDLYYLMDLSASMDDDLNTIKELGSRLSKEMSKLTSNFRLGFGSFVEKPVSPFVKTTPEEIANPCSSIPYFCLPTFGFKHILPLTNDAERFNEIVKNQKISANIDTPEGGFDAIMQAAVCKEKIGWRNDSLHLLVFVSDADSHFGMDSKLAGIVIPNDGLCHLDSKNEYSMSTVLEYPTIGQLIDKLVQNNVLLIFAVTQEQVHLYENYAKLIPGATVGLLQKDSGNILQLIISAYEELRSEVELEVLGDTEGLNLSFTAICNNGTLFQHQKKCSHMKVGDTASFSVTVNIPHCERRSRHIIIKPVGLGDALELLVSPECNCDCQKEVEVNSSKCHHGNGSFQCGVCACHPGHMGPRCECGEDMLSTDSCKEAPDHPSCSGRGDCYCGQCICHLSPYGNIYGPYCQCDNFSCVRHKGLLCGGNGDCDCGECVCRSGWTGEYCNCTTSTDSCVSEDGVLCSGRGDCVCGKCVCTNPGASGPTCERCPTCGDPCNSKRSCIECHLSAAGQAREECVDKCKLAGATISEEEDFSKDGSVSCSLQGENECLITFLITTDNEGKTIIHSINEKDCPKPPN

Sequence of integrin α5β1 (P08648 42-1049, chain 1 of 2): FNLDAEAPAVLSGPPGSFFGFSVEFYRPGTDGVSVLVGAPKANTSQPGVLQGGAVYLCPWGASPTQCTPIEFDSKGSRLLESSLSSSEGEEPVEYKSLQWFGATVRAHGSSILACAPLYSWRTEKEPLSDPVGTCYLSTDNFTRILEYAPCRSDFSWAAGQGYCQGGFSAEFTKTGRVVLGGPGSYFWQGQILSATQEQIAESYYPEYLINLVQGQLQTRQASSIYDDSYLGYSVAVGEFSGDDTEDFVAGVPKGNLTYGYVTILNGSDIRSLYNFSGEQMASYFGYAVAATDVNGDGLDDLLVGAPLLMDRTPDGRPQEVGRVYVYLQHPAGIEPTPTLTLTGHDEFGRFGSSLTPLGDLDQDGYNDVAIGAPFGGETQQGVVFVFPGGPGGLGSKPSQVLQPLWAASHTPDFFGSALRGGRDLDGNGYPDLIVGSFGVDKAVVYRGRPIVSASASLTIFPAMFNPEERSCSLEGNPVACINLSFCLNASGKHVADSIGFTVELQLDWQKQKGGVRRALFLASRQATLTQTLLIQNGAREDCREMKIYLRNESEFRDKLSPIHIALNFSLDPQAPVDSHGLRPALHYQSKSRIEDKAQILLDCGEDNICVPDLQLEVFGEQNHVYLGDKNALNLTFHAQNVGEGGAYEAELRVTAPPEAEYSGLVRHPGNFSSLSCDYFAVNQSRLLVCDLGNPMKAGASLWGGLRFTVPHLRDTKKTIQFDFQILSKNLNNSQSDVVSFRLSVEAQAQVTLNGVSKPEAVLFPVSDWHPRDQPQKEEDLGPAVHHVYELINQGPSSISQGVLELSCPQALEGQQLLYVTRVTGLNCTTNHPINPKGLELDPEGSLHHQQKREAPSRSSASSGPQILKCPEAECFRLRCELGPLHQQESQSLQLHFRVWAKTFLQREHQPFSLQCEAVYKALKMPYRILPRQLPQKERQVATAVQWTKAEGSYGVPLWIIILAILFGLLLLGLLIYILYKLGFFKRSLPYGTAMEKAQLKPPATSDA
Sequence of integrin α5β1 (chain, as listed by the source, chain 2 of 2): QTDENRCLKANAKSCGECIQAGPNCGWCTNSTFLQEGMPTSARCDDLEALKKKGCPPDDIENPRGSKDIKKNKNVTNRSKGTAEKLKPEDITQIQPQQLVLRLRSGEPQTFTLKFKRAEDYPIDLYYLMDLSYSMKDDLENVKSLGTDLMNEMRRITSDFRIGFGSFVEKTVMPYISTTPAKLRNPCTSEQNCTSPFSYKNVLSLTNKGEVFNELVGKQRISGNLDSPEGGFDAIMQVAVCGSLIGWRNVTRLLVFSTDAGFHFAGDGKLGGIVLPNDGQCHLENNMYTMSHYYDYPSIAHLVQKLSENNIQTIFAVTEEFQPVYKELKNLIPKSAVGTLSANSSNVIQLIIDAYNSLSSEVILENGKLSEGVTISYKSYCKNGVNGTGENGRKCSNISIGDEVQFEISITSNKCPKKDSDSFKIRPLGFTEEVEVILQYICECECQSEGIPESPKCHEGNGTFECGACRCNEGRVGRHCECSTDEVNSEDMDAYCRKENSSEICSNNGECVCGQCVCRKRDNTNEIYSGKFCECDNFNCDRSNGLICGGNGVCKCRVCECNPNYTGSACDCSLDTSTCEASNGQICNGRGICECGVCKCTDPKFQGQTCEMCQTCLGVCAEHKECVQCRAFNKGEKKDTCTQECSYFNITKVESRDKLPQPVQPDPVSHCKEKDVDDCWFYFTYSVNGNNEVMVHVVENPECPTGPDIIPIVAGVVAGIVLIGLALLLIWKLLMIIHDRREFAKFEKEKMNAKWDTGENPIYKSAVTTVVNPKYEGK

For the molecule cyclo(RGDL[dP][NMeK]([Ahx-BDPFL])GL) [Compound 9b (9-Ahx-BDPFL)], the 50% inhibitory concentration (IC50) in the experiment with integrin αvβ3 was 239 nM; with integrin αIIbβ3, more than 1 µM; with integrin αvβ8, 0.87 nM; in the experiment with integrin αvβ5 it was more than 10 µM; with integrin α5β1, more than 1000 nM; in the experiment with integrin αvβ6, 55 nM.

As for cyclo(RGD[dF]K) [Compound 12 (Table 3) c(RGDfK)], the values for the IC50 with integrin αIIbβ3 and in the experiment with integrin α5β1 were more than 10 µM and 141 nM, respectively.
